From publication PMC5131779

Columns and labels:
[1] = target: G5N M357A (Homo sapiens, UniProt Q8TEQ6 1-726, M357A); test: FP
[2] = target: G5N R335E (Homo sapiens, UniProt Q8TEQ6 1-726, R335E); test: FP
[3] = target: G5N N13A (Homo sapiens, UniProt Q8TEQ6 1-726, N13A); test: FP
[4] = target: G5N Y383F (Homo sapiens, UniProt Q8TEQ6 1-726, Y383F); test: FP
[5] = target: T1, G5N WT (Homo sapiens, UniProt Q8TEQ6 1-726); test: FP
[6] = target: G5N M403E (Homo sapiens, UniProt Q8TEQ6 1-726, M403E); test: FP
G5N M403E, sequence (Q8TEQ6 1-726 M403E): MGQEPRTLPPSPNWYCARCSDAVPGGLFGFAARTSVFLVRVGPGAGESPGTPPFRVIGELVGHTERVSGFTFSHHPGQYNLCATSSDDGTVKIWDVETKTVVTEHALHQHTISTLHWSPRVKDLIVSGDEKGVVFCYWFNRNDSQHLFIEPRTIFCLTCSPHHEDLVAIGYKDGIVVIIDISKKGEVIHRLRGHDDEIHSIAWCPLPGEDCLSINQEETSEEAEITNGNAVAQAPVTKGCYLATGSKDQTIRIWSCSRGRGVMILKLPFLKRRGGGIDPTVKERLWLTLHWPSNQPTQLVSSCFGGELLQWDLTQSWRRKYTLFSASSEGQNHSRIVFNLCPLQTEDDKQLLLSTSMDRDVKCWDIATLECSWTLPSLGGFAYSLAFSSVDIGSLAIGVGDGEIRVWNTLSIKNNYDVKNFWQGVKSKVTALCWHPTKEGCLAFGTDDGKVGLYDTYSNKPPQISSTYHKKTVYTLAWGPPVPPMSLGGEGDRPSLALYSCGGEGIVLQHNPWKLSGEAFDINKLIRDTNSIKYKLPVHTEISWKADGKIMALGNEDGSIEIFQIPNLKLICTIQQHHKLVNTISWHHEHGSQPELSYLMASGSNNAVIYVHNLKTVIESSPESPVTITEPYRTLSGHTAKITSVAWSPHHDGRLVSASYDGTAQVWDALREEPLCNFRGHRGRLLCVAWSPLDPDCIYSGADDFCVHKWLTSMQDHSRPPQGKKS

[7] = target: G5N R359A (Homo sapiens, UniProt Q8TEQ6 1-726, R359A); test: FP
G5N R359A, sequence (Q8TEQ6 1-726 R359A): as the sequence (Q8TEQ6 1-726 M403E) above, with R359A, E403M counted along it

[8] = target: G5N R33A (Homo sapiens, UniProt Q8TEQ6 1-726, R33A); test: FP
G5N R33A, sequence (Q8TEQ6 1-726 R33A): as the sequence (Q8TEQ6 1-726 M403E) above, with R33A, E403M counted along it

[9] = target: T1, G5N WT; test: EMSA
[10] = target: T1, G5N WT; test: EMSA; remark: listed apart in the source
[11] = target: T1, G5N WT; test: crystal structure
[12] = target: G5N Y474A (Homo sapiens, UniProt Q8TEQ6 1-726, Y474A); test: EMSA
G5N Y474A, sequence (Q8TEQ6 1-726 Y474A): as the sequence (Q8TEQ6 1-726 M403E) above, with E403M, Y474A counted along it

T1 sequence (Q8TEQ6 1-726): as the sequence (Q8TEQ6 1-726 M403E) above, with E403M counted along it
G5N R335E, sequence (Q8TEQ6 1-726 R335E): as the sequence (Q8TEQ6 1-726 M403E) above, with R335E, E403M counted along it
G5N M357A, sequence (Q8TEQ6 1-726 M357A): as the sequence (Q8TEQ6 1-726 M403E) above, with M357A, E403M counted along it
G5N Y383F, sequence (Q8TEQ6 1-726 Y383F): as the sequence (Q8TEQ6 1-726 M403E) above, with Y383F, E403M counted along it
G5N N13A, sequence (Q8TEQ6 1-726 N13A): as the sequence (Q8TEQ6 1-726 M403E) above, with N13A, E403M counted along it

With GCAAUUUUUGACA (ssRNA) [U4 13-mer, FITC] the Kd [1] was 8.1 µM, the Kd [2] was 96.7 µM and the Kd [3] was 1.4 µM. For the same binder, the Kd [4] was 3.8 µM, the Kd [5] was 0.24 µM and the Kd [6] was 2 µM. For the same binder, the Kd [7] was 46.6 µM and the Kd [8] was 3.3 µM.

CAAUUUUUGAC (ssRNA) [U4 11-mer]: binds [9].

AAUUUUUG (ssRNA) [U4 8-mer]: binds [10].

CAAUUUUUG (ssRNA) [U4 9-mer (soak)]: binds [11].

AUUUUUG (ssRNA) [U4 7-mer (bare Sm site)]: binds [11].

GCAAUUUUUGACA (ssRNA) [U4 13-mer]: binds [12].
